In US20200216532A1 (Ablynx, published 2020):

B1: SEQ ID NO: 38 (VHH)
chain: EVQLVESGGGLVQPGGSLRLSCAASGFTFSSYAMSWVRQAPGKGLEWVSGIKSSGDSTRYAGSVKGRFTISRDNAKNTLYLQMNSLRPEDTAVYYCAKSRVSRTGLYTYDNRGQGTLVTVSSGGGGSGGGGSGGGGSGGGGSEVQLVESGGGLVQPGGSLRLSCAASGRTFNNYAMGWFRQAPGKEREFVAAITRSGVRSGVSAIYGDSVKDRFTISRDNAKNTLYLQMNSLRPEDTAVYYCAASAIGSGALRRFEYDYSGQGTLVTVSSA
notes: Ex. 8
B2: SEQ ID NO: 42 (VHH)
chain: EVQLVESGGGLVQPGGSLRLSCAASGRTFSYNPMGWFRQAPGKGRELVAAISRTGGSTYYPDSVEGRFTISRDNAKRMVYLQMNSLRAEDTAVYYCAAAGVRAEDGRVRTLPSEYTFWGQGTQVTVSSAAAEVQLVESGGGLVQPGGSLRLSCAASGRTFSYNPMGWFRQAPGKGRELVAAISRTGGSTYYPDSVEGRFTISRDNAKRMVYLQMNSLRAEDTAVYYCAAAGVRAEDGRVRTLPSEYTFWGQGTQVTVSSA
notes: Ex. 8
B3: SEQ ID NO: 43 (VHH)
chain: DVQLVESGGGLVQPGGSLRLSCAASGFILDYYAIGWFRQAPGKEREGVLCIDASDDITYYADSVKGRFTISRDNSKNTVYLQMNSLRPEDTAVYYCATPIGLSSSCLLEYDYDYWGQGTLVTVSSGGGGSGGGSEVQLLESGGGLVQPGGSLRLSCAASGFTFRSFGMSWVRQAPGKGPEWVSSISGSGSDTLYADSVKGRFTISRDNSKNTLYLQMNSLRPEDTAVYYCTIGGSLSRSSQGTLVTVSSA
notes: Ex. 8
B4: SEQ ID NO: 45 (VHH)
VHH: EVQLVESGGGLVQAGGSLRLSCAASRSIGRLDRMGWYRHRTGEPRELVATITGGSSINYGDFVKGRFTISIDNAKNTVYLQMNNLKPEDTAVYYCNFNKYVTSRDTWGQGTQVTVSS
notes: Ex. 8; no addition
B5: SEQ ID NO: 47 (VHH)
VHH: EVQLVESGGGLVQPGGSLRLSCAASGSVFKINVMAWYRQAPGKGRELVAGIISGGSTSYADSVKGRFTISRDNAKNTLYLQMNSLRPEDTAVYYCAFITTESDYDLGRRYWGQGTLVTVSS
notes: Ex. 8
B6: SEQ ID NO: 48 (VHH)
VHH: EVQLVESGGGLVQPGGSLRLSCIASGLPFSTKSMGWFRQAPGKEREFVARISPGGTSRYYGDFVKGRFAISRDNAKNTTWLQMNSLKAEDTAVYYCASGERSTYIGSNYYRTNEYDYWGTGTQVTVSS
notes: Ex. 8
B7: SEQ ID NO: 49 (VHH)
VHH: EVQLLESGGGLVQPGGSLRLSCAASGLPFSTKSMGWFRQAPGKGREFVSRISPGGTSRYYGDFVKGRFTISRDNSKNTLYLQMNSLRAEDTAVYYCASGERSTYIGSNYYRTNEYDYWGQGTLVTVSS
notes: Ex. 8; V5L, I23A, E44G, A49S, A68T, A74S, T78L, W79Y, K83R, T110Q, Q108L
B8: SEQ ID NO: 71 (VHH)
VHH: EVQLVESGGGLVQPGGSLRLSCAASRSIGRLDRMGWYRHRPGEPRELVATITGGSSINYGDSVKGRFTISIDNSKNTVYLQMNSLRPEDTAVYYCNFNKYVTSRDTWGQGTLVTVSG
notes: Ex. 8
B9: SEQ ID NO: 65 (VHH)
VHH: EVQLVESGGGLVQAGGSLRLSCAASRSIGRLDRMGWYRHRPGEPRELVATITGGSSINYGDSVKGRFTISIDNSKNTVYLQMNSLRPEDTAVYYCNFNKYVTSRDTWGQGTLVTVSS
notes: Ex. 8
B10: SEQ ID NO: 66 (VHH)
VHH: EVQLVESGGGSVQPGGSLRLSCAASRSIGRLDRMGWYRHRPGEPRELVATITGGSSINYGDSVKGRFTISIDNSKNTVYLQMNSLRPEDTAVYYCNFNKYVTSRDTWGQGTLVTVSS
notes: Ex. 8
B11: SEQ ID NO: 67 (VHH)
VHH: EVQLVESGGGLVQPGGSLRLSCAASRSIGRLDRMGWYRHRPGEPRELVATITGGSSINYGDSVKGRFTISIDNSKNTVYLQMNSLKPEDTAVYYCNFNKYVTSRDTWGQGTLVTVSS
notes: Ex. 8
B12: SEQ ID NO: 68 (VHH)
VHH: EVQLVESGGGLVQAGGSLRLSCAASRSIGRLDRMGWYRHRPGEPRELVATITGGSSINYGDSVKGRFTISIDNSKNTVYLQMNSLRPEDTAVYYCNFNKYVTSRDTWGQGTQVTVSS
notes: Ex. 8
B13: SEQ ID NO: 69 (VHH)
VHH: EVQLVESGGGLVQPGGSLRLSCAASRSIGRLDRMGWYRHRPGEPRELVATITGGSSINYGDSVKGRFTISIDNSKNTVYLQMNSLRPEDTAVYYCNFNKYVTSRDTWGQGTQVTVSS
notes: Ex. 8
B14: SEQ ID NO: 70 (VHH)
VHH: EVQLVESGGGLVQPGGSLRLSCAASRSIGRLDRMGWYRHRPGEPRELVATITGGSSINYGDSVKGRFTISIDNSKNTVYLQMNSLRPEDTAVYYCNFNKYVTSRDTWGQGTLVQVSS
notes: Ex. 8
B15: SEQ ID NO: 72 (VHH)
VHH: EVQLVESGGGLVQPGGSLRLSCAASRSIGRLDRMGWYRHRPGEPRELVATITGGSSINYGDSVKGRFTISIDNSKNTVYLQMNSLRPEDTAVYYCNFNKYVTSRDTWGQGTLVTVGG
notes: Ex. 8
B16: SEQ ID NO: 78 (VHH)
VHH: EVQLVESGGGLVRPGGSLRLSCAASRSIGRLDRMGWYRHRPGEPRELVATITGGSSINYGDSVKGRFTISIDNSKNTVYLQMNSLRPEDTAVYYCNFNKYVTSRDTWGQGTLVTVSS
notes: Ex. 8
B17: SEQ ID NO: 80 (VHH)
VHH: EVQLVESGGGLVQPGGSLRLSCAASRSIGRLDRMGWYRHRPGEPRELVATITGGSSINYGDSVKGRFTISIDNSKNTVYLQMNSLRPEDTAVYYCNFNKYVTSRDTWGQGTLVQVGG
notes: Ex. 8
B18: SEQ ID NO: 81 (VHH)
VHH: EVQLVESGGGVVQPGGSLRLSCAASRSIGRLDRMGWYRHRPGEPRELVATITGGSSINYGDSVKGRFTISIDNSKNTVYLQMNSLRPEDTAVYYCNFNKYVTSRDTWGQGTLVTVSS
notes: Ex. 8
B19: SEQ ID NO: 82 (VHH)
VHH: EVQLVESGGGLVQPGGSLRLSCAASRSIGRLDRMGWYRHRPGEPRELVATITGGSSINYGDSVKGRFTISIDNSKNTVYLQMNSLRAEDTAVYYCNFNKYVTSRDTWGQGTLVTVSS
notes: Ex. 8
B20: SEQ ID NO: 83 (VHH)
VHH: EVQLVESGGGLVQPGGSLRLSCAASRSIGRLDRMGWYRHRPGEPRELVATITGGSSINYGDSVKGRFTISIDNSKNTVYLQMNSLRPEDAAVYYCNFNKYVTSRDTWGQGTLVTVSS
notes: Ex. 8
B21: SEQ ID NO: 84 (VHH)
VHH: EVQLVESGGGLVQPGGSLRLSCAASRSIGRLDRMGWYRHRPGEPRELVATITGGSSINYGDSVKGRFTISIDNSKNTVYLQMNSLRPEDTAVYYCNFNKYVTSRDTWGQGTLVTVGS
notes: Ex. 8
B22: SEQ ID NO: 85 (VHH)
VHH: EVQLVESGGGSVQPGGSLRLSCAASRSIGRLDRMGWYRHRPGEPRELVATITGGSSINYGDSVKGRFTISIDNSKNTVYLQMNSLRPEDTAVYYCNFNKYVTSRDTWGQGTLVQVGG
notes: Ex. 8
B23: SEQ ID NO: 86 (VHH)
VHH: EVQLVESGGGSVQPGGSLRLSCAASRSIGRLDRMGWYRHRPGEPRELVATITGGSSINYGDSVKGRFTISIDNSKNTVYLQMNSLRPEDTAVYYCNFNKYVTSRDTWGQGTLVQVSS
notes: Ex. 8
B24: SEQ ID NO: 87 (VHH)
VHH: EVQLVESGGGSVQPGGSLRLSCAASRSIGRLDRMGWYRHRPGEPRELVATITGGSSINYGDSVKGRFTISIDNSKNTVYLQMNSLRPEDTAVYYCNFNKYVTSRDTWGQGTLVTVGG
notes: Ex. 8
B25: SEQ ID NO: 89 (VHH)
VHH: EVQLVESGGGSVQAGGSLRLSCAASRSIGRLDRMGWYRHRPGEPRELVATITGGSSINYGDSVKGRFTISIDNSKNTVYLQMNSLRPEDTAVYYCNFNKYVTSRDTWGQGTLVQVGG
notes: Ex. 8
B26: SEQ ID NO: 74 (VHH)
VHH: EVQLVESGGGLVQPGGSLRLSCAASRSIGRLDRMGWYRHRPGEPRELVATITGGSSINYGDSVKGRFTISIDNSKNTVYLQMNSLRPEDTAVYYCNFNKYVTSRDTWGQGTLVTVSS
notes: Ex. 8

Key:
Experiment in all cases: SPR, interference factor immobilized
[1] = target: T1, purified interference factor(s), Donor A
T1 construct: also called interference in serum from Donor A

[2] = target: T2, purified interference factor(s), Donor B
T2 construct: also called interference in serum from Donor B

[3] = target: T3, purified interference factor(s), Donor C
T3 construct: also called interference in serum from Donor C

Row | Binder | % of binding of reference (=100%) [1] [%] | % of binding of reference (=100%) [2] [%] | % of binding of reference (=100%) [3] [%]
1 | B1 | 9 | 25 | 7
2 | B2 | 1 | 4 | 
3 | B3 | 3 | 20 | 
4 | B4 | 0 |  | 
5 | B5 | 1 |  | 
6 | B6 | 0 |  | 
7 | B7 | 0 |  | 
8 | B8 | 88 | 105 | 87
9 | B9 | 73 | 121 | 64
10 | B10 | 81 | 29 | 84
11 | B11 | 102 | 117 | 96
12 | B12 | 38 | 115 | 49
13 | B13 | 80 | 120 | 84
14 | B14 | 90 | 105 | 98
15 | B15 | 70 | 47 | 56
16 | B16 | 96 | 96 | 100
17 | B17 | 65 | 5 | 58
18 | B18 | 94 | 50 | 89
19 | B19 | 96 | 80 | 100
20 | B20 | 56 | 73 | 61
21 | B21 | 84 | 50 | 83
22 | B22 | 46 | 5 | 42
23 | B23 | 76 | 6 | 86
24 | B24 | 51 | 5 | 39
25 | B25 | 14 | 5 | 17
26 | B26 | 4 | 41 | 33
